Patent publication KR20130126543A

How the values were obtained:
IL-6R-Fc 항원 (human) [1] = target: IL-6R-Fc 항원 (human) (UniProt P08887); assay: mono phage ELISA; antigen coated 100 ng/well; anti-M13-HRP
Fc = assay: mono phage ELISA; Fc coated 100 ng/well; anti-M13-HRP
IL-6R-Fc 항원 (human) [2] = target: IL-6R-Fc 항원 (human) (UniProt P08887); assay: mono phage ELISA; ratio of the IL-6R full signal to the a-myc signal

Sequence of UniProt P08887 (P08887 20-365 limits assumed): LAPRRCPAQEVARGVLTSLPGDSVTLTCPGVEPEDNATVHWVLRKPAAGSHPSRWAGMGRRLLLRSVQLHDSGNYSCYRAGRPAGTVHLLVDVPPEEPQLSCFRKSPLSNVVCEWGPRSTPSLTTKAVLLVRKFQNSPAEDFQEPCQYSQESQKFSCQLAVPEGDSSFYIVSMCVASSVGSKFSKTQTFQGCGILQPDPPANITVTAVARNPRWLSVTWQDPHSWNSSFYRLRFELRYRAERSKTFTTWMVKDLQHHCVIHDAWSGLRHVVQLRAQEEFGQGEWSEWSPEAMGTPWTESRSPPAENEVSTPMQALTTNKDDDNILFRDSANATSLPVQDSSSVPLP

B1: 모노 파아지 클론 B10 (scFv, V domains shown)
VH: QVQLVESGGGLVQPGGSLRLSCAASGFIFDDYAMFWVRQVPGKGLEWVAGINWNGNGIGYGDSVRGRFIISRDNARNSLDLQMNSLRAEDTAVYYCARPSLYGGNSEFDLWGQGTLVTVSS
VL: SQLVLTQPPSVSGAPGQTVTISCTGPTIGAGYDVHWYQQLPGAAPKLLIYGNLNRPSGVPDRFSGSKSGTSASLAITDLQAEDEADYYCHTYDSSLSGSWVFGGGTKLTVL
B1 showed an OD 490 nm (IL-6R full) (IL-6R-Fc 항원 (human) [1]) of 2.1 OD490, an OD 490 nm (Fc) (Fc) of 0.0406 OD490 and a Ratio (IL-6R-Fc 항원 (human) [2]) of 18.6.

B2: 모노 파아지 클론 D2 (scFv, V domains shown)
VH: QVQLVESGAEVKKPGSSVKVSCKGSGDTFPNYAINWVRQAPGQGPEWMGRIIPMLGTSDYAEKFQGRVTITADKSTNTAYMGLNSLRSEDTAVYYCVKGPRYYGTDSYYLEKWGQGTMVTVSS
VL: SQLVLTQPPSVSGAPGQTVTISCTGPTIGAGYDVHWYQQLPGAAPKLLIYGNLNRPSGVPDRFSGSKSGTSASLAITDLQAEDEADYYCHTYDSSLSGSWVFGGGTKLTVL
For B2, the OD 490 nm (IL-6R full) (IL-6R-Fc 항원 (human) [1]) was 2.34 OD490, the OD 490 nm (Fc) (Fc) was 0.0415 OD490 and the Ratio (IL-6R-Fc 항원 (human) [2]) was 7.71.

B3: 모노 파아지 클론 F2 (scFv, V domains shown)
VH: QVQLVESGAEVKKPGASVKVSCKASGYTFTNYYMHWVRQAPGQGLEWMGIINPSGGNTGYAQKFQGRVTMTRDMSTSTAYMELSSLRSEDTAVYYCARGLPWGENGLDVWGQGTTVTVSS
VL: SQLVLTQPSSVSGAPGQTVTISCTGSSSNIGAGYDVHWYQQLPGTAPKVLIYGDSDRPSGVPDRFSGSKSATSASLAITGLQAEDEADYYCQSYDSSLSAYVFGTGTKVTVL
B3 was tested, and the OD 490 nm (IL-6R full) (IL-6R-Fc 항원 (human) [1]) was 2.86 OD490, the OD 490 nm (Fc) (Fc) was 0.0405 OD490 and the Ratio (IL-6R-Fc 항원 (human) [2]) was 9.96.

B4: 모노 파아지 클론 A7 (scFv, V domains shown)
VH: QMQLVESGGGLVQPGTSLRLSCAASGFKFEDYAMHWVRQAPGKGLEWVSGVSWNSGTIAYVDSVKGRFTISRDNAKNSLYLQMNSLRAEDTAVYYCARDFTYFYESSGYYAFDLWGQGTMVTVSS
VL: SQLVLTQPPSVSGAPGQRVTISCTGTNSNIGAGYDVHWYQQVPGTTPKLLIYGNTNRPSGVPDRFSGSKSGTSASLAITGLQAEDGGDYYCQSFDSSLTGSVFGTGTKVTVL
Work on B4 yielded an OD 490 nm (IL-6R full) (IL-6R-Fc 항원 (human) [1]) of 2.48 OD490, an OD 490 nm (Fc) (Fc) of 0.0421 OD490 and a Ratio (IL-6R-Fc 항원 (human) [2]) of 31.1.
